pKd: −log10 of the molar value.
What was measured:
[1] = biological target: cynomolgus IL-2Rβγ heterodimeric Fc fusion (knobs-into-holes), biotinylated (cynomolgus) (UniProt Q38J85)
[2] = biological target: human IL-2Rβγ heterodimeric Fc fusion (knobs-into-holes), biotinylated (human) (UniProt P14784)
[3] = biological target: cynomolgus IL-2Rβγ heterodimeric Fc fusion (knobs-into-holes), biotinylated (cynomolgus) (UniProt Q38J85); experiment: SPR; Biacore T200; biotinylated IL2Rβγ-Fc heterodimer immobilised on streptavidin chips; 2-fold dilution series (1.2–300 nM) of IgG-(IL-2)2 injected 2 min, dissociation up to 10 min; global fit, 1:1 interaction model despite bivalent binding: apparent KD
[4] = biological target: human IL-2Rβγ heterodimeric Fc fusion (knobs-into-holes), biotinylated (human) (UniProt P14784); experiment: as above
[5] = biological target: murine IL-2Rβγ heterodimeric Fc fusion (knobs-into-holes), biotinylated (murine) (UniProt P16297); experiment: as above
[6] = biological target: cynomolgus IL-2Rβγ heterodimeric Fc fusion (knobs-into-holes), biotinylated (cynomolgus) (UniProt Q38J85); experiment: SPR; Biacore T200; biotinylated IL2Rβγ-Fc heterodimer immobilised on streptavidin chips; 2-fold dilution series (1.2–300 nM) of IgG-IL-2 injected 2 min, dissociation up to 10 min; global fit, 1:1 interaction model
[7] = biological target: human IL-2Rβγ heterodimeric Fc fusion (knobs-into-holes), biotinylated (human) (UniProt P14784); experiment: as above
[8] = biological target: murine IL-2Rβγ heterodimeric Fc fusion (knobs-into-holes), biotinylated (murine) (UniProt P16297); experiment: as above

human IL-2Rβγ heterodimeric Fc fusion (knobs-into-holes), biotinylated (human), sequence (P14784 27-240, chain 1 of 2): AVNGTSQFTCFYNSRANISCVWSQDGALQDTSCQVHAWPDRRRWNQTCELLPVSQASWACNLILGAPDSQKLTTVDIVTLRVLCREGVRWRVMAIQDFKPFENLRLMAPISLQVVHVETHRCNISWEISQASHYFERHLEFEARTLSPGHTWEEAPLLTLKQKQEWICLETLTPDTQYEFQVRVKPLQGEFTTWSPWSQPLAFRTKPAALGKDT
human IL-2Rβγ heterodimeric Fc fusion (knobs-into-holes), biotinylated (human), sequence (P31785 23-262, chain 2 of 2, further chain): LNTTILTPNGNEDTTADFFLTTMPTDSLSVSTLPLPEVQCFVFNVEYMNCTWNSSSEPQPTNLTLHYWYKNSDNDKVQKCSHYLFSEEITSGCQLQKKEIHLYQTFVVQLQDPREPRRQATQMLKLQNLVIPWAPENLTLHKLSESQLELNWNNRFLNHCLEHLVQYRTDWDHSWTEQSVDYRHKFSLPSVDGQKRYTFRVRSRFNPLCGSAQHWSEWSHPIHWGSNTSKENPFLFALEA
IgG-(IL-2)2 (bivalent fusion of two wild-type human IL-2 to a non-targeted, effector-silent human IgG1), sequence (P60568 21-153 limits assumed): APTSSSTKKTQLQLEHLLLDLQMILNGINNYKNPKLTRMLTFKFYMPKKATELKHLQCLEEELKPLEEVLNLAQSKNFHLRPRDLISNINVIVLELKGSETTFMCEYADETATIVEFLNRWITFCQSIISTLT
IgG-IL-2 (monovalent fusion of wild-type human IL-2 to a non-targeted, effector-silent human IgG1), sequence (P60568 21-153 limits assumed): as above
murine IL-2Rβγ heterodimeric Fc fusion (knobs-into-holes), biotinylated (murine), sequence (P16297 27-240, chain 1 of 2): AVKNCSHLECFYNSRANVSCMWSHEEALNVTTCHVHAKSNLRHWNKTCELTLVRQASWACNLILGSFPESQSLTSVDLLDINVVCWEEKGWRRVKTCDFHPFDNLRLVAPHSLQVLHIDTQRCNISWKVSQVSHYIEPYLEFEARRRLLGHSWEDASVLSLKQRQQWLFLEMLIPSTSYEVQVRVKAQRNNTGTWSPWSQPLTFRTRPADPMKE
murine IL-2Rβγ heterodimeric Fc fusion (knobs-into-holes), biotinylated (murine), sequence (P34902 23-263, chain 2 of 2, further chain): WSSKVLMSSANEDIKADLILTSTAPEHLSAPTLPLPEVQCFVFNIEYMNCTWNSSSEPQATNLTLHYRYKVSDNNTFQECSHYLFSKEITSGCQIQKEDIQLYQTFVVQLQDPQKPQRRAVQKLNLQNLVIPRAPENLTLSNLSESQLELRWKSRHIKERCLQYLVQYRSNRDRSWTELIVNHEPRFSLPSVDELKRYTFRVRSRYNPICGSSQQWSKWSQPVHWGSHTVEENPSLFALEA

Substance	ED50 of pSTAT5a induction in cynomolgus Tregs in whole blood (30 min, 37 °C); the receptor meant is the IL-2 receptor on the cells [1]	ED50 of pSTAT5a induction in human Tregs in whole blood (30 min, 37 °C); the receptor meant is the IL-2 receptor on the cells [2]	pKd [3]	pKd [4]	pKd [5]	pKd [6]	pKd [7]	pKd [8]
IgG-(IL-2)2 (bivalent fusion of two wild-type human IL-2 to a non-targeted, effector-silent human IgG1) (from UniProt P60568 21-153)	0.1 pM	0.3 pM	10.40	11.52	10.40			
IgG-IL-2 (monovalent fusion of wild-type human IL-2 to a non-targeted, effector-silent human IgG1) (from UniProt P60568 21-153)						9.74	10.40	9.12

Source: publication PMC4298360
